Data on three molecules can be found in publication PMC2603313, “Direct Inhibition of GSK3β by the Phosphorylated Cytoplasmic Domain of LRP6 in Wnt/β-Catenin Signaling” (PLoS ONE, 2008).

Positions count from the first letter of the chain named. Names and notes keep the numbering of the source. Ends that are not written are not given here.

The assay deals with T1, catalytic domain of mouse GSK3β (residues 27–393) (mouse, UniProt Q9WV60 27-393).
T1 construct: GSK3β (glycogen synthase kinase 3 beta), mouse, catalytic domain, residues 27-393; also called recombinant GSK3β catalytic domain; source: recombinant, expressed and purified as previously described [32]
Nature of the assay: far-Western, overlay or dot blot; GST-fused LRP6 fragments (with or without prior treatment with GSK3β and CK1) run on SDS-PAGE and transferred to PVDF; membrane incubated 3 h with 1 µg/ml GSK3β in 5% skim milk in TBST (20 mM Tris pH 7.6, 137 mM NaCl, 0.05% Tween 20); bound GSK3β detected with anti-GSK3β antibody. The conditions noted are these: both partners purified.

B1: GST-fused LRP6 miniCL (residues 1470–1510 of human LRP6), phosphorylated by GSK3β and CK1 (domain or fragment, UniProt O75581 1470-1510, looked up)
chain: SSSSSSTKGTYFPAILNPPPSPATERSHYTMEFGYSSNSPS
modifications: also: GST-fused, end not given here, phosphorylated by GSK3β and CK1ε, sites not given here
notes: LRP6, human, intracellular fragment miniCL, residues 1470-1510 (Ser/Thr rich cluster and first PPPSPxS motif); also called phosphorylated GST-miniCL; GST-miniCL phos; source: E. coli, purified (Glutathione-agarose, HiTrapQ), then phosphorylated in vitro with recombinant GSK3β and CK1ε
Consider B1, for which the binding result is recorded as “binds”.

B2: GST-fused LRP6 miniCLMT (residues 1470–1510 of human LRP6, S1490A), phosphorylated by GSK3β and CK1 (domain or fragment, UniProt O75581 1470-1510, looked up)
chain: B1 chain with S21A
modifications: also: GST-fused, end not given here, phosphorylated in vitro by GSK3β and CK1ε, sites not given here
notes: LRP6, human, intracellular fragment miniCL, residues 1470-1510, with Ser1490 replaced by Ala; also called phosphorylated GST-miniCLMT; GST-miniCLMT phos; source: E. coli, purified (Glutathione-agarose, HiTrapQ), then phosphorylated in vitro with recombinant GSK3β and CK1ε
Consider B2, for which the binding result is listed as “binds”.

B3: GST-fused LRP6 miniCLMT (residues 1470–1510 of human LRP6, S1490A), not phosphorylated (domain or fragment, UniProt O75581 1470-1510, looked up)
chain: B1 chain with S21A
modifications: also: GST fusion (GST left off)
notes: LRP6, human, intracellular fragment miniCL, residues 1470-1510, with Ser1490 replaced by Ala; also called GST-miniCLMT; source: E. coli, purified (Glutathione-agarose, HiTrapQ)
Consider B3, for which the binding result is recorded as “binds”.
